Data on two molecules can be found in patent US20180250426A1 (GEORGIA STATE UNIVERSITY RESEARCH FOUNDATION, published 2018).

Experiment [1] deals with T1, GRPR (GRP receptor) (UniProt P30550 1-384, limits assumed).
T1 construct: whole, on cells; also called gastrin release peptide receptor
Briefly: confocal immunofluorescence with a CD2 antibody and Alexa Fluor 488 on GRPR-high PC-3 and DU145 cells at 37 °C; GRPR-low H441 cells as control. As for the experimental part: (§1) In the second day, fresh medium was changed. Contrast agents were incubated with cells at different time point at 37° C. […] After cells were rinsed in PBS for three times, 0.2% Triton X-100 was added to permeablize cells for 10 minutes. […] After three time washes, CD2 antibody was used as primary antibody.

A further experiment deals with T2, HER2 (human, UniProt P04626 23-1255).
T2 construct: whole, on cells; also called cell surface HER2
Briefly: immunofluorescence staining of AU565 cells (HER2 high) with PAbPGCA1. The text has this: We used two cancer cell lines for the binding analyses. AU565 is derived from breast carcinoma. EMT6 is a mouse mammary tumor cell line. AU565 cells express very high levels of HER2. The EMT is regarded as a HER2 negative cell line.

The target of experiment [2] is T1, GRPR (GRP receptor). Briefly: confocal immunofluorescence with a CD2 antibody and Alexa Fluor 488 on GRPR-high PC-3 and DU145 cells; CA1-CD2 without the bombesin sequence as control. As for the experimental part: as §1

T1 sequence (P30550 whole entry): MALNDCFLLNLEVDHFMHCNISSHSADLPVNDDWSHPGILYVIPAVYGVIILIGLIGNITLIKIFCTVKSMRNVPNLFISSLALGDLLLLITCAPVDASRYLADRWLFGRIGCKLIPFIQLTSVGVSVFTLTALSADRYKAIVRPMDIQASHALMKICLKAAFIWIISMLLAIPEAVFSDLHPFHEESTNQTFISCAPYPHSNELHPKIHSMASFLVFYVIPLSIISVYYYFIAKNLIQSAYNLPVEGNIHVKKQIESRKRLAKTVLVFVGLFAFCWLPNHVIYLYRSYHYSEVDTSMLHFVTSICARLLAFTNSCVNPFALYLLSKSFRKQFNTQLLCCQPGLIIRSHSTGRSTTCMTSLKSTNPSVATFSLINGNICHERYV

B1: CA1.CD2-52I-Bom (designed binder)
chain: RDSGTVWGALGHGIELNIPNFQMTDDIDEVRWERGSTLVAEFKRKMKPFLKSGGSGGGNQWAVGHLMGGSGGGAFEIDANGDLDIKNLTRDDSGTYNVTVYSTNGTRILNKALDLRILE
notes: also called CA1.Bom
Regarding B1, the binding result with GRPR (GRP receptor) [1] is reported as “binds”.

B2: CA1.CD2 (designed binder)
chain: RDSGTVWGALGHGIELNIPNFQMTDDIDEVRWERGSTLVAEFKRKMKPFLKSGAFEIDANGDLDIKNLTRDDSGTYNVTVYSTNGTRILNKALDLRILE
notes: domain: domain 1; 12 kDa, expressed in E. coli; in most assays loaded with Gd3+; also called Gd-CA1.CD2
B2: the binding result with HER2 and with GRPR (GRP receptor) [2] was “no binding” throughout.
